# Measured values reported in patent US20120263701.
# T1: soluble tissue factor, P13726
# T1 chain: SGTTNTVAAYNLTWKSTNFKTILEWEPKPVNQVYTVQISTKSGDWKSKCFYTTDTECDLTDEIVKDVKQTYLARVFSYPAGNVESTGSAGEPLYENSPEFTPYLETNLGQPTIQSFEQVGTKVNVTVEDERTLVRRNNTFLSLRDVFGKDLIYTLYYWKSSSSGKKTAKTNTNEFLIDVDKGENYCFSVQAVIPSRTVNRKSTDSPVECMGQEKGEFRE
# B1: FVIIa-AE288 (protein)
# chain 1: ANAFLEELRPGSLERECKEEQCSFEEAREIFKDAERTKLFWISYSDGDQCASSPCQNGGSCKDQLQSYICFCLPAFEGRNCETHKDDQLICVNENGGCEQYCSDHTGTKRSCRCHEGYSLLADGVSCTPTVEYPCGKIPILEKRNASKPQGR
# chain 2: IVGGKVCPKGECPWQVLLLVNGAQLCGGTLINTIWVVSAAHCFDKIKNWRNLIAVLGEHDLSEHDGDEQSRRVAQVIIPSTYVPGTTNHDIALLRLHQPVVLTDHVVPLCLPERTFSERTLAFVRFSLVSGWGQLLDRGATALELMVLNVPRLMTQDCLQQSRKVGDSPNITEYMFCAGYSDGSKDSCKGDSGGPHATHYRGTWYLTGIVSWGQGCATVGHFGVYTRVSQYIEWLQKLMRSEPRPGVLLRAPFPGSPGTSESATPESGPGSEPATSGSETPGTSESATPESGPGSEPATSGSETPGTSESATPESGPGTSTEPSEGSAPGSPAGSPTSTEEGTSESATPESGPGSEPATSGSETPGTSESATPESGPGSPAGSPTSTEEGSPAGSPTSTEEGTSTEPSEGSAPGTSESATPESGPGTSESATPESGPGTSESATPESGPGSEPATSGSETPGSEPATSGSETPGSPAGSPTSTEEGTSTEPSEGSAPGTSTEPSEGSAPGSEPATSGSETPGTSESATPESGPGTSTEPSEGSAPGSSS
# What was measured:
# [1] = target: T1, soluble tissue factor, P13726
Molecule,"Concentration by Activity (ng/ml), aPTT based factor assay (FIX/cFXI1/XTEN (pCW0735)) [ng/mL]",Fraction Active (activity / ELISA) (FIX/cFXI1/XTEN (pCW0735)) [%],clotting activity against FIX-XTEN without cleavage site (aPTT based factor assay) (FIX/cFXI1/XTEN (pCW0735)),"Concentration by Activity (ng/ml), aPTT based factor assay (FIX/cFXI2/XTEN (pCW0736)) [ng/mL]",Fraction Active (activity / ELISA) (FIX/cFXI2/XTEN (pCW0736)) [%],clotting activity against FIX-XTEN without cleavage site (aPTT based factor assay) (FIX/cFXI2/XTEN (pCW0736)),"Concentration by Activity (ng/ml), aPTT based factor assay (FIX/cFXI3/XTEN (pCW0737)) [ng/mL]",Fraction Active (activity / ELISA) (FIX/cFXI3/XTEN (pCW0737)) [%],clotting activity against FIX-XTEN without cleavage site (aPTT based factor assay) (FIX/cFXI3/XTEN (pCW0737)),soluble tissue factor (sTF) induced clotting (Stago STA-Clot FVIIa activity assay) [1]
FXI protease,7,30,enhanced the clotting activity by greater than 30-fold,9,34,enhanced the clotting activity by greater than 30-fold,11,40,enhanced the clotting activity by greater than 30-fold,
B1,,,,,,,,,,an activity equivalent to 112 U/ml of FVIIa activity
